Key:
[1] = molecular target: T1, ThrB (homoserine kinase) (Escherichia coli, UniProt P00547); assay: […]-NMR of ATP to ADP conversion; format: biochemical; details: ATP hydrolysis without second substrate; 37 °C, 24 h
T1 sequence (P00547 1-310): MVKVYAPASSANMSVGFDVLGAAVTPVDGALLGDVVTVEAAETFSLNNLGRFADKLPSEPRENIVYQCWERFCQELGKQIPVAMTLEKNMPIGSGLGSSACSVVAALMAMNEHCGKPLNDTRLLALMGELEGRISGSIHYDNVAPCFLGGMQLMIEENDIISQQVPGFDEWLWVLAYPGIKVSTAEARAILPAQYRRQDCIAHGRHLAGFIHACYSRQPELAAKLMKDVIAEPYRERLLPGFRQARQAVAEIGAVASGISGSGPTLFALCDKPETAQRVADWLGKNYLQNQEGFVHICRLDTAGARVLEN

[2] = substrate: N[C@H](C(=O)O)[C@H](O)CO; assay: purified protein; details: reverse direction: 4-hydroxythreonine to (3R)-3,4-dihydroxy-2-oxobutanoate

`Nc1ncnc2c1ncn2[C@@H]1O[C@H](COP(=O)(O)OP(=O)(O)OP(=O)(O)O)[C@@H](O)[C@H]1O` [ATP] was tested, and the “31P-NMR of ATP to ADP conversion” value [1] was “hydrolysis of ATP in the active site of ThrB in the absence of a second substrate”.

B1: SerC (Escherichia coli K-12) (protein)
chain: AQIFNFSSGPAMLPAEVLKQAQQELRDWNGLGTSVMEVSHRGKEFIQVAEEAEKDFRDLLNVPSNYKVLFCHGGGRGQFAAVPLNILGDKTTADYVDAGYWAASAIKEAKKYCTPNVFDAKVTVDGLRAVKPMREWQLSDNAAYMHYCPNETIDGIAIDETPDFGADVVVAADFSSTILSRPIDVSRYGVIYAGAQKNIGPAGLTIVIVREDLLGKANIACPSILDYSILNDNGSMFNTPPTFAWYLSGLVFKWLKANGGVAEMDKINQQKAELLYGVIDNSDFYRNDVAKANRSRMNVPFQLADSALDKLFLEESFAAGLHALKGHRVVGGMRASIYNAMPLEGVKALTDFMVEFERRHG
With B1 the Km [2] was 2600 ± 700 µM and the kcat [2] was 2.0 ± 0.1 × 10^-5 s^-1.
